# Assay results as given in the DeepSol protein solubility set.
# Assay: soluble on expression in E. coli; label from the status in PepcDB or PDB records
row,Sequence,soluble on expression in E. coli
1,MDKTKLYPEAPLTSSQWGELDELVIETARRQLVGRRFIDLYGPLGEGVQSVANDIYMNPEQGDMSFHGKELSLSEPARRVHLTIPLLYKDFILYWRDIEQAKQLGSPIDFSAAANAAQQCALLEDDLIFNGSTEFDVPGIMNVKGKIAHIRSDWMKSGNAFTDVVEARNKLLQLGHTGPYALVLSPELYALIHRVHEGTHVLEIEHIRELMTAGIYQTPVIKGKRGVVIDTGRQNIDLAVAADMQTAFLDTENMNYLFRVYESVVPRIKRPSAICTLEDPNESA,not soluble
2,MDLERLAQRLEGLRGYLDIPQKETRLKELERRLEDPSLWNDPEAARKVSQEAARLRRTVDTFRSLESDLQGLLELMEELPAEEREALKPELEEAAKKLDELYHQTLLNFPHAEKNAILTIQPGAGGTEACDWAEMLLRMYTRFAERQGFQVEVVDLTPGPEAGIDYAQILVKGENAYGLLSPEAGVHRLVRPSPFDASGRRHTSFAGVEVIPEVDEEVEVVLKPEELRIDVMRASGPGAQGVNTTDSAVRVVHLPTGITVTCQTTRSQIKNKELALKILKARLYELERKKREEELKALRGEVRPIEWGSQIRSYVLDKNYVKDHRTGLMRHDPENVLDGDLMDLIWAGLEWKAGRRQGTEEVEAE,soluble
3,MDLFKRKVKEWVYSLSTDDHYAEYNPDETPTFNMGKRLNSNNGQVNPSQMHLNSVDEEMSMGFQNGVPSNEDINIDEFTSTESNDGVSETLLAWRHIDFWTSEHNPDLNATLSDPCTQNDITHAEEDLEVSFPNPVKASFKIHDGQEDLESMTGTSGLFYGFQLMTLDQVVAMTQAWRNVAKNLNKRSQQGLSHVTSTGSSSSMERLNGNKFKLPNIPDQKSIPPNAVQPVYAHPAWIPLITDNAGNHIGVDLAPGPNGKYAQIITFGRDFDTKFVIAENWGEFLLSFANDLEAGNWYLVDDNDDYFSGDGELVFRDKKSNGPIQDYFEVLKRRTWIKYQENLRSQQQKSQPDTSLQEQKYVPASQKKVAAEQPSTLNAESIKGEDSGSADVQSVQDHESVKIVKTEPSEAETTTVNTESLGQAEHEIKADNVDIKQESERKEDEKQPKVEEKEHVENEHVTESAKKDDDVNKQTEEMNKKEENEIRSDDAKVEEAREEFENIAL,soluble
4,MDLIGLRIRNIRKIKQLTLKEAAKGIISVPYLANIENGVKVASFETLMHIAKRLEIPEEALLIGNEDLNKELLQELKQIFDLLVFSNTKEAGDRLDQIAANVDLLCESPVIELSFYWLQAGFYYKTWEFSKAREIERKYLNSNEKRVVESFPPDLLSYYYYGQAVKHSHATCDYQLAVEYWEKSIDLTDKAAFQVVFQVGLCINYICLNNYEPALKHIECAWNLIKRFPSKDQERITAILYLYGYINFQIGFMTEAKRKFEEVLVFFNMYPEAKTMYSFLVRFKLAEIERVEGNHELFDEKIVCLYEELMAHEASEIGFNNNDYLVITELMVIFAEQGSVLEASNLLAIINKVTEQVMEINFFVTYTETLLLYHQNKQSSYEKKMLDLLKKIDESNDPALIERVKKHASKHFADSTKYKMAYNILA,not soluble
5,MDLPYYHGCLTKRECEALLLKGGVDGNFLIRDSESVPGALCLCVSFKKLVYSYRIFREKHGYYRIETDAHTPRTIFPNLQELVSKYGKPGQGLVVHLSNPIMR,soluble
6,MDLTLIIDNYDSFVYNIAQIVGELGSYPIVIRNDEISIKGIERIDPDRLIISPGPGTPEKREDIGVSLDVIKYLGKRTPILGVCLGHQAIGYAFGAKIRRARKVFHGKISNIILVNNSPLSLYYGIAKEFKATRYHSLVVDEVHRPLIVDAISAEDNEIMAIHHEEYPIYGVQFHPESVGTSLGYKILYNFLNRV,soluble
7,MDMISAFDIFKIGIGPSSSHTVGPMNAGKSFIDRLESSGLLTATSHIVVDLYGSLSLTGKGHATDVAIIMGLAGNSPQDVVIDEIPAFIELVTRSGRLPVTSGAHIVDFPVAKNIIFHPEMLPRHENGMRITAWKGQEELLSKTYYSVGGGFIVEEEHFGLSYDVETPVPYDFHSAGELLKMCDYNGLSISGLMMHNELALRSKAEIDAGFARIWQVMHDGIERGMNTEGVLPGPLNVPRRAVALRRQLVSSDNISNDPMNVIDWINMYALAVSEENAAGGRVVTAPTNGACGIIPAVLAYYDKFRRPVNERSIARYFLAAGAIGALYKMNASISGAEVGCQGEIGVACSMAAAGLTELLGGSPAQVCNAAEIAMEHNLGLTCDPVAGQVQIPCIERNAINAVKAVNAARMAMRRTSAPRVSLDKVIETMYETGKDMNDKYRETSRGGLAIKVVCG,soluble
8,MDMVAQALELSRKPHVVIATPGRLADHLRSSNTFSIKKIRFLVMDEADRLLEQGCTDFTVDLEAILAAVPARRQTLLFSATLTDTLRELQGLATNQPFFWEAQAPVSTVEQLDQRYLLVPEKVKDAYLVHLIQRFQDEHEDWSIIIFTNTCKTCQILCMMLRKFSFPTVALHSMMKQKERFAALAKFKSSIYRILIATDVASRGADQPPLPPGAWTSLRYRWSSTTTPPGSPRSTSTESAGRPVQGGRVRPSRW,soluble
9,MDNDKKDKIILSGELTNHRFNFTKDGENGYSAYEVDRFLDQLVHTLTHYEAQRNREEEMKTAYEKLFQDRDEILKRCSKLEAELNNFYENGYSNRVLISRVQALENKIESLPSGQNDRLERIEKLLKRVIKHWTDGEDLSYGDFDDDFF,soluble
10,MDNFSLLTTPWLPVRFKDGSTGKLAPVDLADENVVDIAATRADLQGAAWQFLLGLLQCSIAPKRYKNWEDIWFDGLHADVLHKALAPLEHAFQFGAETPSFMQDFEPLSGEKVSIASLLPEIPGAQTTKFNKDHFVKRGVTERFCPHCAALALFSLQLNAPAGGKGYRTGLRGGGPLTTLVELQEYQGERQTPLWRKLWLNVMPQDTADLPLPDQCDATVFPWLAATRTSEQANAVTTPEQVNKLQAYWGMPRRIRLDFATLQSGCCDICGAESDELLGFMTVKNYGVNYDGWRHPLTPYRAPVKDQNAFFSVKPQPGGLIWRDWLGLSQNNQTEANYESPAQVVKVFNARSLTDVKAGIWGFGADFDNMKIRCWYEHHFPLLMTEGLIPDLRKAVQTAARLLSLLRSALKEAWFADAKGARGDFSFIDIDFWNLTQGRFLNLIHDLENGHKPDERLNKWQRELWLFTRHYFDDHVFTNPYESSDLERIMTARKKYFTTSAEKQSAKAAKAKKQEAAE,not soluble
11,MDNIVTESIKFESEPNYLQRGYHLFDISFLNGLTCVITNKIETDEIHLKIKLDWDERDIEKITGFIQLSYDGHQLKPIDSNFDKRGGICTIIVPKFLYEYRWSFSFNLKLHRDPAKPPQISNDLKSQVSYDTMFEPSRKHDAVLLIGEKKLHVNKAFLSYHSDYFSDLFAEKVDEKNGIPIENVTYENFGLLMSVIYPEAVFSNHQNAEVLLELGNRFKIPAVMRHVENQIVGDTTKFPNKRLISLAEKYGLQKLLAMEIQKMKSFDQAKKFKGSDDYLQLSDATKAKIFDRLIELS,not soluble
12,MDNKALLTHVDINNVVCAMPLPYTRLYEGLASGLKAQFDGIPFYYAHMRGADIRVECLLNGVYDMAVVSRLAAESYLTQKGLCLALELGPHTYVGEHQLICRKGESANVKRVGLDNRSADQKIMTDVFFGGSDVERVDLSYHESLQRIVKGDVDAVIWNVVAENELTMLGLEATPLTDDPRFLQATEAVVLTRVDDYPMQQLLRAVVDKHALLAHQQRVVSGEQEPSY,soluble
13,MDNKIVYVVSDSVGETADLVVRAAMGQFPFAPDIRRVPYVEDTGTLKEVISIAKSNQALICFTLVKPDMRQYLVTEAAKEGVEAYDIIGPLIDQIEEITGQVPRYEPGVVRRLDEEYFKKIEAIEFAVKYDDGRDARGILKADIVLIGISRTSKTPLSQYLAHNKRLKVANVPLVPEVDPPEELYQVAKEKCFGLKITPEKLNHIRKERLKSLGLSDGATYANINRIKEEIDHFENVVSKINCQVIDVSNKAIEETANIIVNAVQNQKMFMAGDPLEHHHHHH,soluble
14,MDNLKDFKNEALVVTNASDGNTPHIVQGIEPDGSLRTKPLAQAKPSETFLHIDRNKSVIGTFFSNMNRQYDRPSDFRFYHLPVEMLSAAKDLVEIFKFPEENGQLLSNYAIDIRQPAQEQSITGDTPQQTTRWGVDEVDWQQLARMGVTPESLGETGMQRLLNGHESAVLDIRISFEGIDFETPACIRLVESAGGKPVLNVECCKRYPELDRPYMGTELSPEVKENLSRSNNAGCVVELELAGGVREPCLLSLNPKTNRLHHVPVSEITIPQEVNRVRLSDDQTTRLARGESVLVENMWSEKKQGYYDARLQYNVCKGGFTYDFRGLNRKQAQSETQMRSRELVIPQVLKGVGLTPEVREKLAAGKTVHIKDMTDNEGNLFSAFVRVNHERAKFDFFKWNPDKSKKQGQSQQAAVRQEGTKPENTVSRNRPVQKTDKKGVSI,not soluble
15,MDNQISVPPALTGNYAFFFDLDGTLADIQPHPDQVVIPDSTLQALNALAQQQGGAVALISGRSMAELDALTHPWRLPLAGVHGAERRDINGKTYIVSLPTALRDEIAAELTSALEALPGCELESKEMAFALHYRQAPQQQSAVLELAQRIVQRYPLLALQLGKCVVEIKPRGVNKGEAITAFMQEAPFAGREPVFVGDDLTDEAGFSVVNQLQGMSVKVGAGETQAHWRLADAAAVRTWLQHLAYDAQTERRDDHESFSRSL,not soluble
16,MDNRVREACQYISDHLADSNFDIASVAQHVCLSPSRLSHLFRQQLGISVLSWREDQRISQAKLLLSTTRMPIATVGRNVGFDDQLYFSRVFKKCTGASPSEFRAGCE,soluble
17,MDPKFQRVALSDGHFIPVLGFGTYAPEEVPKSKAMEATKIAIDAGFRHIDSAYFYKNEKEVGLAIRSKIADGTVKREDIFYTSKLWCTFHRPELVRPSLEDSLKNLQLDYVDLYIIHFPTALKPGVEIIPTDEHGKAIFDTVDICATWEAMEKCKDAGLAKSIGVSNFNRRQLEMILNKPGLKYKPVCNQVECHPYLNQGKLLEFCKSKGIVLVAYSALGSHREPEWVDQSAPVLLEDPLIGALAKKHQQTPALIALRYQLQRGIVVLAKSFTEKRIKENIQVFEFQLPSEDMKVIDSLNRNFRYVTADFAIGHPNYPFSDEY,soluble
18,MDPLSAASKIAGSGLEVQSTRLRIVSENIANARSTGDTPGADPYRRKTVTFGSELDHVSGVERVKVKKLGVDRGDFVHEYDPGNPAADTNGMVKMPNVNVLIEMADMREANRSYDANLQVIRQTRDLVASTIDLLKASQ,not soluble
19,MDPLSWLYARQGRFAPGLERIRAFLARLGHPEEAYPVALVGGTNGKGTTARALAAILEEAGFRVGLYTSPHLVDFRERIQVQGRPIPEEKLLALLAELRPHAERLEASFFEVATALALLHFAREGVEFAVLEVGLGGRLDATNATEPVLSVVTNVGHDHLEVLGPTLKDVAREKAGIFRGGVPALTAARGEGLGVLRAEALGRKNPPWVLGEDFHAEGVEALPQGLAFTLRLERTGEALRLTARLLGPHQAENLALAALSGRLLGAGWEAVKRGVARAENPGRLQRLLWRGRELLLDGAHNPEGALALREALRFHGLLPAAFVLGFSRDKDHAAMAEALRGLGPVVLTRYASPRSEDPRALLPLFPGAKVVEDPLEALEEAFSREGRVVVAGSLYLVGEVLRRLEGLPAEERWQ,soluble
20,MDPNQPVKFTEFMPDSGGIRTKFIVKGSNFGEDKSQVKVYFKDEVGNEREALVLGVKPDVIYAQVPKQAGGESHVRVEIAGKEAELSNAEKTFKYIVTSSVSTVVGKAKEGGNKDGTLGETTFNTPRYVAVDNDDNVFIFDSDGRTRLSSIEQNKTITLLDGMVIDQPLFIDKEKKQLFGPCDNANFGCFLFDANVSWVADKMGQLLANGGWMHSVVLDPVDSTFVIYRQNTGQLWTQPFDKNRRTLNPNKAKRIGTLYNTGSNGLCAYNPVDKYVYCVLHSKSAVYRFKLTRDADGWPALDGDIDEYIPGAGAGFRDGDVQEAQFKEPRGIAIDKEGNLYIADVGNNRIRKVDTKLNVVTTIAGSGAAGYKDGDPLEAQFNQPWGVYLDKNEFLYIADQNNHCIRKLAIELEHHHHHH,not soluble
